Reference: publication PMC11729909, “FOXP1 phosphorylation antagonizes its O-GlcNAcylation in regulating ATR activation in response to replication stress” (The EMBO Journal, 2024)

Molecular target: T1, His-tagged OGT (human, UniProt O15294 1-1046)
T1 construct: OGT, human, full length; Vector pet28a; also called His-OGT; pet28a-OGT; source: E. coli, purified
T1 sequence (looked up): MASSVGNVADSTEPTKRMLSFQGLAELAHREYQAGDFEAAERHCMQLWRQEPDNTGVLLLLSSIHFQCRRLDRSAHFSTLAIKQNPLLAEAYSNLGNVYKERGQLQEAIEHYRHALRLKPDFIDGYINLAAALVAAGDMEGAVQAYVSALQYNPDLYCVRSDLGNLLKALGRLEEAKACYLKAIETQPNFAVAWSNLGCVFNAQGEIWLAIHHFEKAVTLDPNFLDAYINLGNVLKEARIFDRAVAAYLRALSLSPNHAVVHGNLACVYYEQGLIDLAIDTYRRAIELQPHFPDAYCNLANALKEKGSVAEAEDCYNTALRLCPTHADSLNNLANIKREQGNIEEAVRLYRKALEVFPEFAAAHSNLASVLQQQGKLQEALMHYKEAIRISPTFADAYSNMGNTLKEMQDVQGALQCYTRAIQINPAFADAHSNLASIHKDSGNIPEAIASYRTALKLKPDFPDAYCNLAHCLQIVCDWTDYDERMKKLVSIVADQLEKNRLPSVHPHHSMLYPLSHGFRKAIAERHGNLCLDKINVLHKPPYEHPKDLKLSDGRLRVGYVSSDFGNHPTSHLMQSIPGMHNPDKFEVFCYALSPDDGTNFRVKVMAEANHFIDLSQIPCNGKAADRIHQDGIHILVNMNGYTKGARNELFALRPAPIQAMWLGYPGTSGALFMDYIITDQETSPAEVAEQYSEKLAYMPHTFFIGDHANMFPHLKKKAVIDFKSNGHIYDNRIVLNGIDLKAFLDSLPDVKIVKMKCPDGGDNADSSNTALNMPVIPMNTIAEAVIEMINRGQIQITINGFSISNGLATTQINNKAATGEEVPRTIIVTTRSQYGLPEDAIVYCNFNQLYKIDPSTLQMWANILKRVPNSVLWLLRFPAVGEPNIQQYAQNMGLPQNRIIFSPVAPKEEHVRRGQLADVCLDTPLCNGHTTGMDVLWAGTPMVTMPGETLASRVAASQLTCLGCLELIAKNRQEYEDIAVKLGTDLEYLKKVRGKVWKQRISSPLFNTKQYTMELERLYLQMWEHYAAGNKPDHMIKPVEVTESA
Experiment: pull-down; GST pull-down: His-tagged OGT incubated with wild-type GST-tagged FOXP1 or its mutant lacking AA 556–610, glutathione beads, immunoblot
Details: both partners purified

binding result: binds
B1: GST-tagged FOXP1 (wild type, full length) (natural protein, human, UniProt Q9H334 1-677, looked up)
chain: MMQESGTETKSNGSAIQNGSGGSNHLLECGGLREGRSNGETPAVDIGAADLAHAQQQQQQALQVARQLLLQQQQQQQVSGLKSPKRNDKQPALQVPVSVAMMTPQVITPQQMQQILQQQVLSPQQLQVLLQQQQALMLQQQQLQEFYKKQQEQLQLQLLQQQHAGKQPKEQQQVATQQLAFQQQLLQMQQLQQQHLLSLQRQGLLTIQPGQPALPLQPLAQGMIPTELQQLWKEVTSAHTAEETTGNNHSSLDLTTTCVSSSAPSKTSLIMNPHASTNGQLSVHTPKRESLSHEEHPHSHPLYGHGVCKWPGCEAVCEDFQSFLKHLNSEHALDDRSTAQCRVQMQVVQQLELQLAKDKERLQAMMTHLHVKSTEPKAAPQPLNLVSSVTLSKSASEASPQSLPHTPTTPTAPLTPVTQGPSVITTTSMHTVGPIRRRYSDKYNVPISSADIAQNQEFYKNAEVRPPFTYASLIRQAILESPEKQLTLNEIYNWFTRMFAYFRRNAATWKNAVRHNLSLHKCFVRVENVKGAVWTVDEVEFQKRRPQKISGNPSLIKNMQSSHAYCTPLNAALQASMAENSIPLYTTASMGNPTLGNLASAIREELNGAMEHTNSNESDSSPGRSPMQAVHPVHVKEEPLDPEEAEGPLSLVTTANHSPDFDHDRDYEDEPVNEDME
notes: FOXP1, human, full length; Vector pGEX-4T-1; also called GST-FOXP1; pGEX-4T-1-FOXP1; source: E. coli, purified
